Here are results for 29 sequences from the supplement of paper PMC9170038.

The subject of the data set is MS2 coat protein. Nature of the data set: apparent KD of MS2 coat protein; designed switch direction (-1 OFF switch, 1 ON switch): -1; higher = weaker reporter binding. Put shortly: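 Designed RNA switches with common flanks were made on Illumina chips by stalled E. coli RNA polymerase. Titration with SNAP-549-labelled MS2 coat protein doubled from 0.7 or 1.5 nM up to 3 µM. Apparent KD is each design's median over clusters after curve-fitting normalised fluorescence.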

[1] abbreviates: Eterna round: R95, input ligand: FMN 200 uM.
[2] abbreviates: Eterna round: R95, input ligand: microRNA oligo, concentration not stated.
Where [3] appears, read: Eterna round: R95, input ligand: none.
Where [4] appears, read: input ligand: microRNA oligo, concentration not stated.

For the sequence “GGUGAAGCAGGAUAUGUAUCGGCAUACAUGAGGAUCACCCAUGUCAUGUAGAUACCGCAUAUAGAAGGGCUUCACC [Exclusion 5 (FMN-MS2 slide v.5)] (Eterna round: R97, puzzle: Exclusion 5)”, the “apparent KD of MS2 coat protein” value reads like this: (input ligand: FMN 200 uM) 41.1 nM; (input ligand: none) 16.9 nM.
For “GGACUAGGAGGAUAUACAUGAGGAUCACCCAUGUGUUGAUAAAGUCUACACAAUGUUAGUAGAAGGCUUAGACC [Eternabot (L2) Solution 18] (Eterna round: R97, puzzle: Exclusion 3)” the same measures were 22.5 nM and 17.5 nM.
On to “CUGAGGUAGCGGUCCUAUGACAUGAGGAUCACCCAUGUACCUUGCUUCGAGCUUUUAGCUCGUCUUAUGAUUCUCGG [Mat - Sensor v3 - turn-off var 1 - JL Mod - D36] (puzzle: Sensor v3, turn-off variant 1)”, for which the “apparent KD of MS2 coat protein” value by setting is: under setting [1], 423 nM; under setting [2], 502 nM; under setting [3], 522 nM.
“CCUCCACAUGAGGAUCACCCAUGUCAGGAUAUCGUGUGCGCGUUUUCGGUCUUUCGCGCGAGAAGGGACGACUG (Eterna round: R96, puzzle: Exclusion 1)”: the “apparent KD of MS2 coat protein” value is, setting by setting: (input ligand: FMN 200 uM) 32 nM; under setting [4], 22.5 nM; (input ligand: none) 30.2 nM.
Take “GCUUGUAGAGGAUAUACGAGGGCCCGAGCGGAUAACACCGCACAUGAGGAUCACCCAUGUAGAAGGCUACUACC [JL-ex2-4.17 ViennaUCT mod] (Eterna round: R97, puzzle: Exclusion 2)”: the “apparent KD of MS2 coat protein” value (input ligand: FMN 200 uM) was found to be 495 nM and the “apparent KD of MS2 coat protein” value (input ligand: none) worked out at 92.3 nM.
Take “CCCACAAGCUUUUUGCUCGACAUGAGGAUCACCCAUGUAAAAUGGGUAAAUUUAAAUUUAAAUUUAUUUAAAUUGGG [-18.1, -41.9 kcal, A 34%] (Eterna round: R97, puzzle: Sensor, turn-off variant 1)”: the “apparent KD of MS2 coat protein” value is, setting by setting: (input ligand: FMN 200 uM) 80.9 nM; (input ligand: none) 102 nM.
For “CUGAUGUCAGGAUAUCGGUGGCUCACUAAUGUGUGCCAGACCGAGAAGGGACAUGAGGAUCACCCAUGUCUUUA [Exclusion 4 (Mod5b of #36 by Marzena11)] (Eterna round: R97, puzzle: Exclusion 4)” the same measures were 42.4 nM and 26.2 nM.
In the case of “CAUACUCAAGUCAGGAUAUACAGUCGAAUACGGGUGUAGAAGGGACAUGAGGAUCACCCAUGUAGAGAGUAAAG [EX-4 Malc #22] (puzzle: Brourd's mod of Exclusion 4)”, the “apparent KD of MS2 coat protein” value turned out to be 122 nM under setting [1], 33 nM under setting [2] and 36.1 nM under setting [3].
For “AAUGUGUAAGGAUAUCCGAAAAGCGAGCGAAAGCGAGCGAAGGAGAAGGUACAUGAGGAUCACCCAUGUAAGGG [AK-MS2ROC-r4-exclusion4-11.6] (Eterna round: R97, puzzle: Exclusion 4)”, the “apparent KD of MS2 coat protein” value runs as follows: (input ligand: FMN 200 uM) 71.5 nM; (input ligand: none) 530 nM.
Consider “CUUCACCCACUAGAGCUCACCCACAAACCUACUCUAGUGACAUGAGGAUCACCCAUGUUUUUUGCCCGUCUUAUCUU [Qugeenerce] (puzzle: Sensor v3, turn-off variant 2)”, for which the “apparent KD of MS2 coat protein” value under setting [1] came out at 40.2 nM, the “apparent KD of MS2 coat protein” value under setting [2] was found to be 184 nM and the “apparent KD of MS2 coat protein” value under setting [3] came out at 41.4 nM.
In the case of “AGUUCUAACACGUUGGUGUUAGUACCAUAAGCUUGUGAUACAUGAGGAUCACCCAUGUCCUCAUAAGCUCGUCUUAU [salish99_TOv2_r3_1001] (puzzle: Sensor v3, turn-off variant 2)”, the “apparent KD of MS2 coat protein” value is, setting by setting: under setting [1], 26.8 nM; under setting [2], 400 nM; under setting [3], 21.9 nM.
Turning to “AAGGAUAGAGGAUAUACAUAGAUACAGAUUCAUGUAGAAUUACAUGAGGAUCACCCAUGUAGAAGGCUAUCCUA [Fiskers Ex 2 - 1] (puzzle: Exclusion 2)”, under setting [2], the “apparent KD of MS2 coat protein” value was 285 nM.
For the sequence “CUGAGCAGACGGAGAUCCCACAUGAGGAUCACCCAUGUCUCAAAAGCUUUUUGCUUGUCUUAUUCUCCUCUGUUCUC [Arorza] (Eterna round: R96, puzzle: Sensor v3, turn-off variant 1)”, the “apparent KD of MS2 coat protein” value (input ligand: FMN 200 uM) turned out to be 13.7 nM, the “apparent KD of MS2 coat protein” value under setting [4] was 72.2 nM and the “apparent KD of MS2 coat protein” value (input ligand: none) was determined as 15.8 nM.
In the case of “AGUACUAACACGCGUGUGUUAGUACAAUAAGCUUGUGAAACAUGAGGAUCACCCAUGUCCUCAUAAGCUCGUCUUAU [salish99_TOv2_r3_076] (puzzle: Sensor v3, turn-off variant 2)”, the “apparent KD of MS2 coat protein” value under setting [1] amounted to 15.7 nM, the “apparent KD of MS2 coat protein” value under setting [2] came to 608 nM and the “apparent KD of MS2 coat protein” value under setting [3] amounted to 13.7 nM.
The like results for “UUUAAUUUUUUUUUUUUACAAGCUUUUUGCUCGUCUUAUACAUGAGGAUCACCCAUGUAGAUGGAGGAUAAAUUAUC [JMF 32] (puzzle: Sensor v3, turn-off variant 2)” were, in that order, 14.4 nM, 28.9 nM and 15.2 nM.
For the sequence “UCGUUGUGAGGAUAUAUAUGCAGUAAUCCUUUAAAUUUAUAACUUGAGGAUCACCCAAGUAGAAGGCGCGACGU [JR_Ex2_Sub056] (Eterna round: R97, puzzle: Exclusion 2)”, the “apparent KD of MS2 coat protein” value (input ligand: FMN 200 uM) stood at 160 nM and the “apparent KD of MS2 coat protein” value (input ligand: none) came to 30.2 nM.
In the case of “UUAAUUAGCUCGCUAGAUCCUCACAUGAGGAUCACCCAUGUGCAGGAUAUCAGCUCGAUUAGAGCUGAGAAGGGCACUGCGAGC [ExNG3/10-A1] (Eterna round: R96, puzzle: Exclusion NG 3)”, the “apparent KD of MS2 coat protein” value (input ligand: FMN 200 uM) was determined as 160 nM, the “apparent KD of MS2 coat protein” value under setting [4] stood at 89.5 nM and the “apparent KD of MS2 coat protein” value (input ligand: none) amounted to 104 nM.
In the case of “AAGUUGAAAGUCAGGAUAUCCAGACAAAAGUCAACGGAGAAGGGACUUGAGGAUCACCCAAGUGACCCUAAAUG [Usraleribe] (Eterna round: R97, puzzle: Brourd's mod of Exclusion 4)”, the “apparent KD of MS2 coat protein” value (input ligand: FMN 200 uM) stood at 23.9 nM and the “apparent KD of MS2 coat protein” value (input ligand: none) came out at 14.8 nM.
In the case of “CAGGACUGAGGAUAUGCGCGGACAAGAUCCUCAAUCCCAAAACAUGAGGAUCACCCAUGUAGAAGGCAGAAAUA [Edbein] (puzzle: Exclusion 2)”, the “apparent KD of MS2 coat protein” value was determined as 32.9 nM under setting [1], 35.4 nM under setting [2] and 31 nM under setting [3].
The like results for “CCGAGGUGGCGGUCCUAUGACAUGAGGAUCACCCAUGUACCUCGCCACAAGCUCUUUGCUCAUCUUAUAGUUCUCGG [Onlaor] (puzzle: Sensor v3, turn-off variant 1)” were, in that order, 18.6 nM, 124 nM and 17.9 nM.
With “ACUUAUUGAGGAUAUACAUAGAUUUACAUGAGGAUCACCCAUGUUCCUCUAUGUAUAUAUGUAGAAGGCAGAAGAA [JL-ex5-4.32 Malcolm mod] (Eterna round: R97, puzzle: Exclusion 5)”, the “apparent KD of MS2 coat protein” value reads like this: (input ligand: FMN 200 uM) 26.7 nM; (input ligand: none) 15.7 nM.
Turning to “UUUAUAAUUUCAAUCUUCGCUGGCGAACUUACGCCAGCCACAUGAGGAUCACCCAUGUUUUUUGUUCGUUUUAUUCU [Gelaoren] (puzzle: Sensor v3, turn-off variant 2)”, the “apparent KD of MS2 coat protein” value by setting is: under setting [1], 19.5 nM; under setting [2], 66.6 nM; under setting [3], 21.1 nM.
For “GGUCAGCUAGGAUAUACAUGAGGAUCACCCAUGUACUGACCCAUGCGGUAGUCCGCAUGUAGAAGGAGCAAAAU [Cebiin] (Eterna round: R97, puzzle: Exclusion 3)”, the “apparent KD of MS2 coat protein” value is, setting by setting: (input ligand: FMN 200 uM) 11.3 nM; (input ligand: none) 18.2 nM.
Regarding “AUUCCUUGUGUUAGGAUAUGUCACUACCGUAUGCGACAGAAGGAACAUGAGGAUCACCCAUGUGAGUUAGCCGA [Usened] (puzzle: Brourd's mod of Exclusion 4)”, under setting [2], the “apparent KD of MS2 coat protein” value was found to be 52.4 nM.
On to “UCUCGCGGGCAAGGAUAUCCUACGCUGUUCUGGCCCGUGUUUGUUACAUGAGGAUCACCCAUGUGGGAGAAGGUGCACCAGGGC [Design 41] (Eterna round: R96, puzzle: Exclusion NG 2)”, for which the “apparent KD of MS2 coat protein” value reads like this: (input ligand: FMN 200 uM) 62 nM; under setting [4], 36.5 nM; (input ligand: none) 76.4 nM.
The like results for “GCACGGAGUGUAGGAUAUCUGUGCGAUUAGCUCAGAGAAGGACACAUGAGGAUCACCCAUGUGUAACUCAACAUUAAUCCGUGC [Eli exng1 - 074] (Eterna round: R96, puzzle: Exclusion NG 1)” were, in that order, 9.63 nM, 7.59 nM and 10.6 nM.
On to “UGUACGAUGCGUGCUGACAUGCGUCGUGCAGCAGGUGAUACAUGAGGAUCACCCAUGUCCUCAUUUGCUCGUCUUGU [SL-sv3-2.11 JL mod] (puzzle: Sensor v3, turn-off variant 2)”, for which the “apparent KD of MS2 coat protein” value under setting [1] was determined as 82.5 nM, the “apparent KD of MS2 coat protein” value under setting [2] was 267 nM and the “apparent KD of MS2 coat protein” value under setting [3] is 85.6 nM.
On to “GAGUGACAUGAGGAUCACCCAUGUAAGGAUAUACGGUUGGUAGAGAGAGGGAAAAGAGGUAGAAGGUACGAAGG [JR_Exclu1_Sub056] (puzzle: Exclusion 1)”, for which the “apparent KD of MS2 coat protein” value stood at 43.9 nM under setting [1], 56 nM under setting [2] and 76.2 nM under setting [3].
For the sequence “CACACGUAAGGAUAUACAACGGAAACGGGCGCGCGGGCCUCACAUGAGGAUCACCCAUGUAGAAGGUGCACGGG [Eternabot (Original) Solution 18] (Eterna round: R97, puzzle: Exclusion 2)”, the “apparent KD of MS2 coat protein” value (input ligand: FMN 200 uM) stood at 41.7 nM and the “apparent KD of MS2 coat protein” value (input ligand: none) is 50.3 nM.
